Data from paper PMC3582507, “A Safeguard Mechanism Regulates Rho GTPases to Coordinate Cytokinesis with the Establishment of Cell Polarity” (PLoS Biology, 2013).

T1: 6His-Gps1-1-290 (S. cerevisiae, UniProt Q99299 1-290)
T1 construct: Gps1, budding yeast, ORF YPL158C, amino acids 1-290; also called 6His-GPS1 (amino acids 1-290); source: E. coli BL21 (DE3), purified (Ni-NTA agarose)
T1 sequence (looked up): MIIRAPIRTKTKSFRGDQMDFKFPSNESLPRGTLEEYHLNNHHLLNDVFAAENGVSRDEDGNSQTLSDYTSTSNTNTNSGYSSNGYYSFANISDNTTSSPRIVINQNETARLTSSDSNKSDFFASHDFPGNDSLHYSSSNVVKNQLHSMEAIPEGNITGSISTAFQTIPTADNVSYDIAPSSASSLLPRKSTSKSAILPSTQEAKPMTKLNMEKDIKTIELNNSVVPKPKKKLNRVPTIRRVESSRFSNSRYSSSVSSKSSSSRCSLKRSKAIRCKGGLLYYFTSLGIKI


Biological target: T1, 6His-Gps1-1-290
Assay: pull-down; 6His-Gps1-1-290 bound to Ni-NTA agarose beads, incubated with GST or GST fusion proteins 1 h at 4°C in 50 mM Tris-HCl pH 7.4, 10% glycerol, 100 mM NaCl, 1 mM EDTA, 1 mM DTT, 0.5% NP-40; SDS-PAGE and Western blotting
Conditions: both partners purified

Row | binding result | Binder
1 | binds | GST-Cdc42 (natural protein, Cdc42, Rho GTPase of budding yeast; source: E. coli BL21 (DE3), purified) not shown
2 | binds | GST-Cdc42-Q61L (natural protein, Cdc42, Rho GTPase of budding yeast, nucleotide-locked mutant Q61L; source: E. coli BL21 (DE3), purified) not shown
3 | binds | GST-Cdc42-D57Y (natural protein, Cdc42, Rho GTPase of budding yeast, nucleotide-locked mutant D57Y; source: E. coli BL21 (DE3), purified) not shown
4 | binds | GST-Rho1 (natural protein, S. cerevisiae, UniProt P06780 1-209, looked up, Rho1, Rho GTPase of budding yeast; source: E. coli BL21 (DE3), purified) MSQQVGNSIRRKLVIVGDGACGKTCLLIVFSKGQFPEVYVPTVFENYVADVEVDGRRVELALWDTAGQEDYDRLRPLSYPDSNVVLICFSIDLPDSLENVQEKWIAEVLHFCQGVPIILVGCKVDLRNDPQTIEQLRQEGQQPVTSQEGQSVADQIGATGYYECSAKTGYGVREVFEAATRASLMGKSKTNGKAKKNTTEKKKKKCVLL
5 | binds | GST-Rho1-G19V (natural protein, S. cerevisiae, UniProt P06780 1-209, looked up, Rho1, Rho GTPase of budding yeast, nucleotide-locked mutant G19V; source: E. coli BL21 (DE3), purified) MSQQVGNSIRRKLVIVGDVACGKTCLLIVFSKGQFPEVYVPTVFENYVADVEVDGRRVELALWDTAGQEDYDRLRPLSYPDSNVVLICFSIDLPDSLENVQEKWIAEVLHFCQGVPIILVGCKVDLRNDPQTIEQLRQEGQQPVTSQEGQSVADQIGATGYYECSAKTGYGVREVFEAATRASLMGKSKTNGKAKKNTTEKKKKKCVLL
6 | binds | GST-Rho1-G22A (natural protein, S. cerevisiae, UniProt P06780 1-209, looked up, Rho1, Rho GTPase of budding yeast, nucleotide-locked mutant G22A; source: E. coli BL21 (DE3), purified) MSQQVGNSIRRKLVIVGDGACAKTCLLIVFSKGQFPEVYVPTVFENYVADVEVDGRRVELALWDTAGQEDYDRLRPLSYPDSNVVLICFSIDLPDSLENVQEKWIAEVLHFCQGVPIILVGCKVDLRNDPQTIEQLRQEGQQPVTSQEGQSVADQIGATGYYECSAKTGYGVREVFEAATRASLMGKSKTNGKAKKNTTEKKKKKCVLL
